Laboratory results as given in the RNAGym collection of RNA variant scans (doi:10.1021/acssynbio.7b00057).

B1: Pistol ribozyme (parent)
chain: GGGUCGUUGUUCCAUAAUCGCGUGGAUAUGGCACGCAAGUUUCUACCGGGCACCGUAAAUGUCCGACUGGAGCCGUUCGGGCGGCUAUAAACAGACCUCAGGCCCGAAGCGUGGCGGCACCUGCCGCCGGUGGUAAAAAAGAUCGGAAGAGCACACGUCU

Variants of: B1
Assay: aptazyme ON/OFF ratio, guanine; higher = stronger switching; co-transcriptional cleavage with and without guanine

Row | Variant | aptazyme ON/OFF ratio
1 | U7C U8C G9A U10G U11A C13U | 1.07
2 | U7G U8C G9U U10G U11G | 1.55
3 | U8G G9A U10C U11A C12G | 1.14
4 | U7A G9A U10G U11G C12U C13U | 1.26
5 | U7C U8A G9C U10A | 1.74
6 | U7G U8A G9A U10G U11G C12A C13A | 1.06
7 | U8C U10G C13U | 1.37
8 | U7G G9C C13U | 1.45
9 | U7C U8C G9A U10A U11A C12G | 1.33
10 | U7A U8A G9C U11C C13G | 1.07
11 | U10C C13A | 1.06
12 | U8C G9C U11C | 1.06
13 | U7G U8C U10C U11C C12U C13A | 1.08
14 | U10C U11A C12U C13G | 1.32
15 | U7G G9A U10C U11C C12U C13U | 1.07
16 | U8C G9C U10G C12G C13U | 1.09
17 | U7G U8A G9A U10G U11G C12G C13G | 1.16
18 | U7G U8C U10G U11A C13A | 1.16
19 | U7G U8C G9C U10A U11A | 3.4
20 | U7A U8A G9U U11G C12A | 1.1
21 | U8G G9A U10A U11A C12U C13G | 1.09
22 | U8G U10C C12A C13U | 1.14
23 | U7C G9A U10A U11G C12G C13G | 1.08
24 | U7G U8G U11C C12G C13U | 1.33

Row | Variant | aptazyme ON/OFF ratio
25 | U7A G9U U10C C12G | 1.29
26 | U8A G9A U10C U11G C12G | 1.38
27 | U11G C12A | 1.11
28 | U7C U8C G9A U10G U11G C12U C13U | 1.14
29 | U7A U8A G9C U10A U11A C12G C13U | 1.19
30 | U7C U8A G9C U10A C13G | 1.07
31 | U7A U8G G9A U10G U11A C13A | 1.11
32 | U7A U8A G9A U10G U11A C12G C13A | 1.08
33 | U7C U8G G9U U10A U11C C12A C13U | 1.13
34 | U7C U8G G9U U10A U11C C12A C13A | 1.16
35 | U7C U8A G9C U11G C12A C13G | 1.15
36 | G9C U10G U11A C12A | 1.31
37 | U8C G9A U10C C13U | 1.66
38 | U8A U10C U11G C12A C13U | 1.25
39 | U7A G9A U11C | 1.02
40 | U7G U8G U10C U11C C12A | 1.41
41 | U7G U8G G9C U10A U11C C12U C13G | 1.19
42 | U7C U8A U10C C13A | 1.09
43 | U7C U8A G9A U10G U11A C12A C13A | 1.18
44 | U7G U8C U10A U11A C12G C13A | 1.1
45 | U8A G9A U10C C12U C13U | 1.2
46 | U8C G9C U10G U11A C12G | 1.26
47 | U7A U8G G9A U10A U11G C12G | 1.26
48 | U8C G9U U10A U11C C12A C13U | 1.24

Row | Variant | aptazyme ON/OFF ratio
49 | U7G U8G G9C U11A C12G C13A | 1.12
50 | U7A U8C U10A U11A C12A C13G | 1.15
51 | U7C U8G G9C U10G C12G C13G | 1.12
52 | U7C U8G G9A U10G C12U | 1.37
53 | U8C G9A C13G | 1.07
54 | U8A G9A U10C U11G C13G | 1.18
55 | U7G U8A G9A U11G C12G C13U | 1.1
56 | U7C U8G G9C U10A C12U C13U | 1.05
57 | U7C U8G G9C U10A U11A C12G | 1.14
58 | U7A U10G C12A C13U | 1.2
59 | U7A G9U C12U C13G | 1.16
60 | U7A U8C G9A U10G C12U C13A | 1.23
61 | U8A U10A C12U | 1.11
62 | U7G U8C G9A U11C C12A C13G | 1.17
63 | U10C U11C C12A | 1.27
64 | U7G U8C G9C U10G U11C C12U C13G | 1.32
65 | U7G G9A U10G U11C C12G C13A | 1.08
66 | U7C U8A G9A U11C C12A | 1.23
67 | U7A U10A U11G C12U | 1.15
68 | U7C U8G G9C U11A C12A | 1.22
69 | U8A G9C U11G C13A | 1.15
70 | U7A U10A | 1.11
71 | U7A U10G U11G C12U C13A | 1.33
72 | U7C U8A G9A U10C U11G C12G C13A | 1.24

Row | Variant | aptazyme ON/OFF ratio
73 | U7A U8A G9C U10A U11A | 1.21
74 | U8C G9A U10C U11C C12A C13A | 1.13
75 | G9C U10A | 1.98
76 | U7A U8G G9A U11C C12G | 1.56
77 | U7A U8C U10G U11A | 1.14
78 | U7G U10A U11G C12A C13U | 1.11
79 | U7G U8G U10A U11C C12A C13A | 1.34
80 | G9C U10A C13U | 1.3
81 | U7C U8C G9A U10A U11A C12G C13U | 1.15
82 | U7C U8C G9U U11G C13G | 1.05
83 | U8G U10G U11C C12A C13A | 1.06
84 | G9U C12U | 2.37
85 | G9U U11C C12A C13G | 1.36
86 | U7C U8A U10C U11A C12A C13G | 1.17
87 | U7C G9U U10C U11G C13U | 1.23
88 | U7A U8G G9C U10A U11C C13U | 1.04
89 | G9A U10C C12U C13G | 1.27
90 | U7G U8A U11C C13G | 1.11
91 | U7C G9A U10C U11G C13G | 1.22
92 | U7C U8C G9C U10C U11A C12U C13A | 1.08
93 | U7G G9U U10C C12A C13U | 1.35
94 | U7G U8G U10C U11A C12G C13A | 1.17
95 | U8A U10G C12G C13U | 1.34
96 | G9C U11G C12G | 1.27

Row | Variant | aptazyme ON/OFF ratio
97 | U7G U8G | 1.29
98 | U8C G9C U10A C13G | 1.16
99 | U7G G9C U10G U11G C12G | 1.07
100 | U7A U10C U11A C13U | 1.16
101 | U8C G9C U10A U11C C12U C13U | 1.19
102 | U7C U8A G9U U11A C12A C13A | 1.08
103 | U7G U8A U10G C12G | 1.13
104 | U7C U8C G9C U11C C12A C13G | 1.04
105 | U7A U10G C13U | 1.27
106 | U7G U8C G9A U10C U11C C12G C13A | 1.15
107 | U8G G9C U11C C12U C13A | 1.03
108 | U7A U8A U10G U11G C12U C13U | 1.27
109 | U7A U8G U10A C12A C13U | 1.48
110 | U7G U8A G9C U10C U11C C13G | 1.01
111 | U7A U8G G9A U10G U11A C12U C13G | 1.35
112 | U7G U8G U10G U11A C13G | 1.18
113 | U7A G9U U10G U11A C12G C13A | 1.41
114 | U7G U8C G9A U10G C12A C13A | 1.07
115 | U7A U8A G9A | 1.87
116 | U7C U8A G9U U10A U11C C12G C13A | 1.13
117 | U7C U8A G9U U10A U11C C12G C13G | 1.19
118 | U7G U8G G9A U11A C12U C13G | 1.12
119 | U7A U8C G9U U10A U11G C12U C13U | 1.21
120 | U7A U8G G9U U10G C12U C13G | 1.24

Row | Variant | aptazyme ON/OFF ratio
121 | U8A G9U U11G C12G | 1.12
122 | U7A G9C U11G C13G | 1.07
123 | U7G U8A G9C U10G U11C C12A C13A | 1.07
124 | U8A U11A C12A C13U | 1.25
125 | U7G U8G G9C U10A C12U C13U | 1.04
126 | U7G U8A U10A U11G C12U C13G | 1.14
127 | G9A C12G C13U | 1.44
128 | U7A U10G U11C C12A | 1.76
129 | U7A U8C G9A U10G U11G C12U C13G | 1.33
130 | G9C U10G C12G C13G | 1.14
131 | U8A U10G U11C C12U C13G | 1.27
132 | U7G G9C U10C | 2.77
133 | U7G U8C G9U U11G C12A | 1.44
134 | U7G U8C G9U U11G C12G | 1.34
135 | U7G U8G G9U C12A C13A | 1.17
136 | U7A G9A U11C C13G | 1.08
137 | G9U U10C U11C C12A C13A | 1.15
138 | U7A U8C G9U U10C U11G C12U C13A | 1.15
139 | U7C U8G G9A U10C C13A | 1.04
140 | U7C U8G G9A U10C C13G | 1.06
141 | U8G G9A U10G U11C C12U | 1.02
142 | U8A G9U U10G U11G C12U C13U | 1.35
143 | U7G G9A U10A C12G | 1.18
144 | U7A U8C C12U | 1.49

Row | Variant | aptazyme ON/OFF ratio
145 | U7G U8A U10G U11C C12U | 1.27
146 | U7G U8G U10C U11C C12A C13G | 1.23
147 | U7A U8G G9C U10C U11A C12A C13A | 1.17
148 | U7C U8G G9U U11G C12G C13A | 1.1
149 | U7A G9U U10C C12A C13G | 1.14
150 | U7A U8A G9U U11C C12U C13A | 1.18
151 | U7A U8C G9U U10C U11A C12A | 1.14
152 | U7A U8C G9U U10C U11A C12U | 1.13
153 | U8A U10G U11A C12U C13G | 1.35
154 | U7G U8C U10C C12G C13G | 1.24
155 | U7A U8C G9C U11A C13U | 1.05
156 | U8A G9C U10C U11A C12U C13U | 1.13
157 | U7A U8A U11G C12A C13U | 1.46
158 | U7A U8A U10G U11G C12A | 1.3
159 | U8A G9U U10G U11C C12G C13U | 1.12
160 | U8C G9U U10A U11A C12U | 1.48
161 | U7G U8G G9C U10A | 1.58
162 | U7C U11C C12G | 1.35
163 | G9C C12G C13A | 1.28
164 | U8A G9A U11G C13A | 1.13
165 | U7A G9A U10A C12G C13U | 1.41
166 | U7G U8G U10A U11A C12A C13U | 1.21
167 | U8G G9C U10C U11A C13A | 1.09
